Experimental findings from patent publication CN111690062A (UNIV FUDAN, dated 2020) are described below.

This assay concerns the target T1, Plasmodium falciparum PfRh5 protein (recombinant, expressed in Sf9 insect cells) (Plasmodium falciparum (恶性疟原虫), UniProt Q8IFM5 25-526, limits assumed).
T1 construct: In the BLI assay the protein was amine-coupled to AR2G sensors; also called 恶性疟PfRh5蛋白; PfRh5蛋白
T1 sequence (looked up): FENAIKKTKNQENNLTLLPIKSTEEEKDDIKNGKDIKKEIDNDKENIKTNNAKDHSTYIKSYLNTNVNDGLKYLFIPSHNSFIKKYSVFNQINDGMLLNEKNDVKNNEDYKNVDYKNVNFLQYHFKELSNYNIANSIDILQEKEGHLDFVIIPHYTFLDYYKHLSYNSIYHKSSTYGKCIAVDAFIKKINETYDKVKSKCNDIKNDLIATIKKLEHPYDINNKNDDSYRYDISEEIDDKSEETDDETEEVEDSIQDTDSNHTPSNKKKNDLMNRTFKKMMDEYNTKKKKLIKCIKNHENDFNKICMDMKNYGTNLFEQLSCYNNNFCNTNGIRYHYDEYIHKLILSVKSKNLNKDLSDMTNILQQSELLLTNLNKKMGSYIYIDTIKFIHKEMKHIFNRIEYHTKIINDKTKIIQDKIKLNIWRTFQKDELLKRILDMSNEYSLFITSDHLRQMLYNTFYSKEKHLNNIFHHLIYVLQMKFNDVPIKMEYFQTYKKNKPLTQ
Description: BLI (Octet-Red96) at 37°C; PfRh5 amine-coupled to AR2G sensor; G9 as analyte at 1.2-100 nM in 3-fold dilutions; 1:1 fit.

B1: G9 antigen-binding fragment (Fab), fully human, against Plasmodium falciparum PfRh5 (Fab, V domains shown)
VH: EVQLVQSGGGLVQPGGSLRLSCAASGFTFDDYAMHWVRQAPGKGLEWVAVIWYDGSNKYYADSVKGRFTISRDNSKNTLYLQMNSLRAEDTAVYYCAREHIDDPAMVPSPPAFDIWGQGTMVTVSS
VL: EIVLTQSPATLSLSPGERATLSCRASQSVSSYLAWYQQKPGQAPRLLIYDASNRATGIPARFSGSGSGTDFTLTISSLEPEDFATYYCQQSYSTPRTFGQGTKLEIK
notes: also called 抗体G9; 克隆G9
Turning to B1, the dissociation constant Kd worked out at 4.9 nM.
